The assay concerns the target T1, 6HIS-Δ38NADKc-1, refolded (A. thaliana, UniProt Q0WUY1 39-534).
T1 sequence (looked up): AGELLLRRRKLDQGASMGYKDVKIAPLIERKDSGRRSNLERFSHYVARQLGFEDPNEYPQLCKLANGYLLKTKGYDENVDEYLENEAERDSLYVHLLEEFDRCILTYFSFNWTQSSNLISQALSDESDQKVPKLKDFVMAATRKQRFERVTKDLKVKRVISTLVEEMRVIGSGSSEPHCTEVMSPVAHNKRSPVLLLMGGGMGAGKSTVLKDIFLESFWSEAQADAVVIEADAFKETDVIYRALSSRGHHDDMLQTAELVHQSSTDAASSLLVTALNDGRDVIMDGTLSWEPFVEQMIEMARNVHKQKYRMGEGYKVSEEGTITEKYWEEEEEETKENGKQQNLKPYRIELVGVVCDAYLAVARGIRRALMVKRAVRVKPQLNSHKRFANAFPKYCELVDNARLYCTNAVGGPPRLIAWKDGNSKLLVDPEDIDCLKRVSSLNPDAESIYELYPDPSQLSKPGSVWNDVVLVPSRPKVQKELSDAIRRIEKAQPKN
Description: enzyme activity titration.

B1: A. thaliana (At) CaM1 (natural protein)
chain: not shown
Take B1: the Kd (commonly the free concentration of one partner at which half of the binding sites on the other are occupied at equilibrium, for simple one-to-one binding) was in the range of 0.6 to 1 nM.

These data come from paper doi:10.1101/521658 (bioRxiv, 2019).
